This passage reports dissociative half-life and Kd results from patent US20180238915A1 (published 2018).

Experiment [1] has as its target T1, negatively modulated GCSF receptor (GCSFR(-)) (UniProt Q99062 25-621, limits assumed, modified by S-HyNic and conjugated through HyNic-4FB bonds to a 64-base DNA oligonucleotide (SEQ. ID 2, 5' C12 amino modifier); number and sites not stated).
T1 construct: Receptor-oligonucleotide conjugate; Receptor known only by catalogue number; also called nGCSFR; nTPR
T1 sequence (looked up): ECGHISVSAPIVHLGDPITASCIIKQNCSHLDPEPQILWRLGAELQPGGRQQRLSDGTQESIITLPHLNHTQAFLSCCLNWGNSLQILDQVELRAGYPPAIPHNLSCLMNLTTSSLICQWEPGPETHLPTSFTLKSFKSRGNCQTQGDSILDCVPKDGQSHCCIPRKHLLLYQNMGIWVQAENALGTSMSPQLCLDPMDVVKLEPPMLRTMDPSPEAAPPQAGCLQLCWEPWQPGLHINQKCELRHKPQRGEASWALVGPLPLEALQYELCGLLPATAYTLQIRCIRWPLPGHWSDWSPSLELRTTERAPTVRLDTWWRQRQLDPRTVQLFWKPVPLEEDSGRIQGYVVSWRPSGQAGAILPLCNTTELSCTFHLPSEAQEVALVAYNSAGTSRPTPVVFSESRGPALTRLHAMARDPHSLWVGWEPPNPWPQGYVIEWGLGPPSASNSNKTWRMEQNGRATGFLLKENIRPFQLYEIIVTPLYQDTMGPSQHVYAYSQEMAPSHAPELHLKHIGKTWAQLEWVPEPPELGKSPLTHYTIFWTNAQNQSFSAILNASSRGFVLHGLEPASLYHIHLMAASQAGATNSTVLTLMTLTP
Description: off-rate by negative MCM and electrokinetic concentration; 100 nM labeled drug, 1 uM negatively modulated receptor. The procedure: The dissociation rate of drug-receptor binding, koff was measured by monitoring the evolution of the peak of complex and fitting it with the aforementioned derived equation.

For experiment [2], the target named is T2, positively modulated granulocyte colony stimulating factor receptor (pGCSFR) (UniProt Q99062 25-621, limits assumed, C-terminal Lys carries 5-FAM; C-terminal amide (CONH2); N-terminus modified by 6-(BOC-hydrazino)nicotinic acid for conjugation to the receptor; modified by Sulfo-S-4FB and conjugated through a …).
T2 construct: Receptor-peptide conjugate; Receptor known only by catalogue number
T2 sequence: T1 sequence (looked up)
T2 sequence (peptide): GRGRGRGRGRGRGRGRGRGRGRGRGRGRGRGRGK
Description: direct assay by positive MCM and electrokinetic concentration; 1 nM pGCSFR, 0-81 nM G-CSF, 30 min incubation, 30 V 15 min. The source says: The dose-response curves were plotted by fitting the experimental results with the classic second-order binding model.

B1: labeled G-CSF (Alexa Fluor 488) (ligand, UniProt P09919-2 31-204, looked up)
chain: TPLGPASSLPQSFLLKCLEQVRKIQGDGAALQEKLCATYKLCHPEELVLLGHSLGIPWAPLSSCPSQALQLAGCLSQLHSGLFLYQGLLQALEGISPELGPTLDTLQLDVADFATTIWQQMEELGMAPALQPTQGAMPAFASAFQRRAGGVLVASHLQSFLEVSYRVLRHLAQP
modifications: Alexa Fluor 488 label (carboxylic acid succinimidyl ester); sites not stated
B1 had a dissociative half-life in experiment [1] of 330 min.

B2: granulocyte colony stimulating factor (G-CSF) (ligand, UniProt P09919-2 31-204, looked up)
chain: B1 chain
notes: Unlabeled Sandoz G-CSF
B2: in experiment [2], the equilibrium dissociation constant (Kd) (usually the constant that tells how readily two partners part at equilibrium) was around 0.7 nM.
